The DeepSol protein solubility set

Assay: soluble on expression in E. coli; label from the status in PepcDB or PDB records

| Sequence | soluble on expression in E. coli |
| --- | --- |
| MGSDKIHHHHHHDKTVKENGRTLHNGIVLPEQWPPSMIDDGVRREMSLPYISNKPTVISVNLGRQLFVDDFLIAETDMERVSHKAMFYENNPVLAPDKEWEYTFERAPYAAPFSDGIWYDESEQKFKMWYLAGAGSMHKHRQSFYTCYAESKDGKHWEKVNMDIVPGTNIVDTCDRDAATVWLDKMCPEPEKRFKLFNVEKHSGGWKIILKYSKDGIHWSEGVAQSGPVGDRTTAFYNPFTQKWAISLRQGSKADGRSRGYLENEDPEMAVSVAHSLAKGIKDKNIVLWFTPSDKELPHPEFPDVRPAIYNFDAMPYESVMLGFYAMWKGPENDLCGKLGIQKRNEIGMGYSRDGFHFYRPSYEPVMGVNETEGAWNWGNMQSVIGVPLIVGDSLYLYSSGRMKNKVMWDGFTSTGLATLRRDGFVSMHTDTEGVLVTEKIKFDGNHFFVNAQAKDLQVEIMDENGNVITGFSREDCKEMNDLNSTKQLVTWKSGKKLAALSGKIVKVKFYVTCGDLYAFWISPWDTGESRGYTGGGGPGLNPCGIDIK | not soluble |
| APLAHCDGRGGLKLSQDMDTCEDILPCVPFSVAKSVKSLYLGRMFSGTPVIRLRFKRLQPTRLVAEFDFRTFDPEGILLFAGGHQDSTWIVLALRAGRLELQLRYNGVGRVTSSGPVINHGMWQTISVEELARNLVIKVNRDAVMKIAVAGDLFQPERGLYHLNLTVGGIPFHEKDLVQPINPRLDGCMRSWNWLNGEDTTIQETVKVNTRMQCFSVTERGSFYPGSGFAFYSLDYMRTPLDVGTESTWEVEVVAHIRPAADTGVLFALWAPDLRAVPLSVALVDYHSTKKLKKQLVVLAVEHTALALMEIKVCDGQEHVVTVSLRDGEATLEVDGTRGQSEVSAAQLQERLAVLERHLRSPVLTFAGGLPDVPVTSAPVTAFYRGCMTLEVNRRLLDLDEAAYKHSDITAHSCPPVEPAAA | soluble |
| MSLGTVHARSLEPLPASGPDFGALGEEAEFVEVEPEAKQEILENKDVVVQHVHFDGLGRTKDDIIMYEIRDVFKAKNLIEVMRKSHEAREKLLRLGIFRQVDVLIDTCQGDDALPNGLDVTFEVTELRRLTGSYNTMVGNNEGSMVLGLKLPNLLGRAEKVTFQFSYGTKETSYGLSFFKPQPGNFDRNFSVNLYKVTGQFPWSSLRETDRGVSAEYSFPTWKTSHTVKWEGVWRELGCLSRVASFAVRKESGHSLKSSLSHSMVIDSRNSSILPKRGALLKVNQELAGYTGGDVSFLKEDFELQLNKQLILDTVFSASLWGGMLVPMGDKPSSIADRFYLGGPTSVRGFSMHSVGPQSEGDYLGGEAYWAGGLHLYTPLPFRPGQGGFGELFRTHFFLNAGNLCNLNYGEGPKAHIRKLAECIRWSYGAGIVLRLGNIARLELNYCVPMGVQRGDRICDGVQFGAGIRFLEGHHHHHH | not soluble |
| MDRMKIEAVIFDWAGTTVDYGCFAPLEVFMEIFHKRGVAITAEEARKPMGLLKIDHVRALTEMPRIASEWNRVFRQLPTEADIQEMYEEFEEILFAILPRYASPINAVKEVIASLRERGIKIGSTTGYTREMMDIVAKEAALQGYKPDFLVTPDDVPAGRPYPWMCYKNAMELGVYPMNHMIKVGDTVSDMKEGRNAGMWTVGVILGSSELGLTEEEVENMDSVELREKIEVVRNRFVENGAHFTIETMQELESVMEHIEKQELIIS | soluble |
| MLETYDWNNKLTYLKNTRDLYYNDDYVSFLVNTVWKITKPVHIVDYGCGYGYLGLVLMPLLPEGSKYTGIDSGETLLAEARELFRLLPYDSEFLEGDATEIELNDKYDIAICHAFLLHMTTPETMLQKMIHSVKKGGKIICFEPHWISNMASYLLDGEKQSEFIQLGVLQKLFESDTQRNGKDGNIGMKIPIYLSELGVKNIECRVSDKVNFLDSNMHHNDKNDLYQSLKEEGIAGDPGDKQQFVERLIARGLTYDNALAQYEAELRFFKALHLHSSLVYAPNMKITFGEIECMAGDPLEHHHHHH | soluble |
| DVQITQSPSYLAASPGETITLNCRASKSISKYLAWYQEKPGKTNKLLIYSGSTLQSGIPSRFSGSGSGTDFTLTISSLEPEDFAMYFCQQHNEYPYTFGGGTKLEIKRTVAAPSVFIFPPSDEQLKSGTASVVCLLNNFYPREAKVQWKVDNALQSGNSQESVTEQDSKDSTYSLSSTLTLSKADYEKHKVYACEVTHQGLSSPVTKSFNRGEC | soluble |
| MKLGFVGAGRVGSTSAFTCLLNLDVDEIALVDIAEDLAVGEAMDLAHAAAGIDKYPKIVGGADYSLLKGSEIIVVTAGLARKPGMTRLDLAHKNAGIIKDIAKKIVENAPESKILVVTNPMDVMTYIMWKESGKPRNEVFGMGNQLDSQRLKERLYNAGARNIRRAWIIGEHGDSMFVAKSLADFDGEVDWEAVENDVRFVAAEVIKRKGATIFGPAVAIYRMVKAVVEDTGEIIPTSMILQGEYGIENVAVGVPAKLGKNGAEVADIKLSDEEIEKLRNSAKILRERLEELGY | soluble |
| MSDFMSNTAALQLLHNAVKSYEREVANFFAANEKATSKYTGRFDFRQFAKKMFDPIPTAQLGQLYIEMLEESHIYMHSHQKSRVGANGYPHSFVSVPELLLNMILAYQLPQQRFVPAEKMEEDGGKVEEDGGAGGAGGSRKKRRNSAARKGKNVTINPRVVLGNELAAKLLEEMLKIPLAPESKQWKTAKYVLCPSSCPQQMEVFGEIIAKNTKSGLISFNALNYFMHDPILNRYLDDPITILHALYIGPLQAPTVELFATNRTDVFRQRCREVLRIALHASKDPMTFTYSVPEFIDKNHPDRCSYRDFVETVTQLIRDLNGEHQGSTAIHTGWACAAIKKFGQKRYVDKTWKDENYYDLIWTVLAQRPHLKKFVVDVLEKNFKDLDAARFWRRMQPYQMNPTVIFNQNVIIVDPLQPTDEFLNFPPTVRHIQMVTNEKEIRDLQMLLEYKVSREEKIYVGVDAEWSAYVSPSKATILQMSLHDCIYIIDLESYQISPQSYHHVLSYLFETPEIVKIGFQFGEDLHQLRAAFRNCVALYRPNNVVCVGKLIMDLMDEIGKLENCDDFRKEWLPHLTDNETSSAANSSVEEQANETIDTNESMDEGDGGGSGIVVKKEESVKQQFLNKGLSFICEKLLGRPLDKTEQCSVWDRRPLRCLQLRYAAMDAYCMLLLYEKCATIFAKLGINVNDFVSKQSPIRISLPLLSEEKL | not soluble |
| MALVEFLMETLDGLKGTDIVHFDVRGKSSITDNMIICTGTSSRQVSAMADNLITECKKAGFETFGEEGKNTADWIVVDLGQAIVHIMQRDAREMYQLEKLWALEHHHHHH | not soluble |
| MGSDKIHHHHHHMMDMLMSTPNYNASLLAMATAALNALDSSHAGAAHATEAQQSHFLCNWMAQALKDKSFDKAIAGELTLWVRQGRSMGSSAQLKRLLQTIRHQYSTLAEHTMGLGNALAKMLEDARQQDVIVYTDTPVKTKLKLDADGQSSIIVCADEYQQHIRDGELIKPISLFVRADEKFLAKLAFSHGLMLTQGDKKSSLIKHHKSYKLFPKNQLPSLALLTFH | not soluble |
| MGSDKIHHHHHHMSRFVVITAAQDFQRKVQSAVRGALHGTVQILPPSVMLGGPQELFGRLSGEPPEVLVLGPGLPGDEALKLATVFDLQYPEISLVLVEDMASEQVINAMRAGIRDIVSPSAEVSELRILLERACLASAGRRRGLVAAAGPERPAGRVIAVMSPKGGVGKTTVATNLAIGLGKIAPMGVVIVDLDVQFGDVATGLQLEPEHTLRDAVGGAAFQDSMVLKAFLTVHPSGIYALCAPNTPGEADHISGEAVSHLLNQMAAEFQYVVVDTTPGLGEHVLATLEQATDAVWVCGMDIPSIRGLHTSFEVLRELQLLPQGRHVVLNFADRRSGLTVQDVEATIGVPVDTVVPRSRAVPFSTNKGVPLLQDSSHDGAARAFAKLVERFDPKRATQPQKKVHRRMVIS | not soluble |
| MHQNNGDYRVRGSRPSRSSEHAGPSLHCKKPEGSIRDTLRLSGSFKIYKEPMPELVCDIHLEKLAENIQKYSKIEERKYRENDMHVNDDSHSSDSRPTSDNEVSSSSDRNNDEPSVRRKRKSVENMCHEREHHGDHLQMQVASVIASNLGPMVEIVEKKLLQHKNAEKLLNDGREVFIKTLEEHNQKKEKVERKAKLVAIPPMKARNRRSSRNSLVYIDGPSTSESHSSMVQQVPIIDNIPEVLENETAVCSISSEADHNSRGIKDNQEFAIEISGEVSRTDDICDDFAVFLKKCTVLLTKFIDSYYDFRSTMKLKPEDAIEHWSAERLTKEEHAARVTRFDVAIARATRVQYNIDIKLLTKQSFVFDDDREAAINKRLARIERFVNEQHEEINWFCFSNFSLMDIGETKDRYCLGDFYDKAISMIPKVKDVPSVVQLAKECKMWSAFERILKQYNFEPLKVFEELQKMLEKDYFLPKGKIFCQFLLNVAQLFSYDVVKNEWSCIKQIDGTLFSGVPFDRDGNLLPTSQNSPTECSS | not soluble |
| MSLNVDPNITKYVIKAKIVTDGVVEKPDVVGAIFGQTEGLLGEELDLRDLQKSGKIGRIEVEIDTKKGRTEGFVLIPSGLDQVESSILAAALETIDRIGPCKAKVDIEDVEDVRINKRDKVIQRAEELYKKMGTNGKSLSESIIQSVREEVEKKEILSYGEEHLPAGPAVGTSDSIIVVEGRNDVLNLLRYGIKNTIAVQGTSVPKTVKELSKARTVTLFVDGDHGGELIIKEMLQVADVDFIARAPPGTEVEELTYKQIVKALKYKAPVNQYLESHGMIEELKEFTEKNNKAIADMNVNTTVKEEPQQKKQEKEPKHVETAEVEAPVIEEINDINDPRFVRNKLNELFESKAVEIYDDAGNPIARYPVSDAAELMQSVKNGTTIISGGVISQRFVDIAFSMGVKSIYGMKIGHVTKKPDEIRVVTWEHMEGHHHHHH | soluble |
| MESEKKIAHEIGGVKNDALRFGLHGVKSNIIGSHPLESSYESEKKSKEALKRTVIAHAYGTALPLKMDMDRQILSRFQRPPGPIPSSMLGLEVYTGAVDDFGFEDYLNDPRDSETFKPVDFHHGMEVRLGISKGPIYPSFM | not soluble |
| MCPCPHSQAQGETDGEAEWHNAALDFTHAMSYGDYLKLDKVLDAQFPLSPDHNEMLFIIQHQTSELWMKLMLHELRAAREHVKSGKLGPALKMLARVSRIFDQLVHAWAVLATMTPTEYNTIRPYLGQSSGFQSYQYREIEFILGNKNATLLKPHAHRAELLAALEQALHTPSLYDEAIRLMAAQGLPVSQERLARDAAAGTCYEASVEAAWRQVYQAPERYWDLYQLAEKLIDLEDSFRQWRFRHVTTVERIIGFKPGTGGTEGVGYLRSMLDTILFPELWRLRSNL | not soluble |
| MGSDKIHHHHHHCDDNDGYSLGDIAVDWATVRVVGGDTYSLNADRWGTLWPAATAIPFYKPIDGQRVITYFNPLYDNYEGYDHAVKVEHNYNVLTKQVEDLTAENESEFGNDPVWVNKDMMWIGGGYLNVIFRQNLPVKEKHLVSLVRDMRATAAEGEDDGYIHLELRYKTYDDVTARQANGAVSFNLNSLDLTGKKGIKVKLNSVKDGETEVVFNLKGQSMPEEAKQVTLSDEVQIK | not soluble |
| MLNGSCLCGRVAYTVDGPLADVVNCHCAMCRKAHGAAFRTRATVRAEHFAFVRGESDITWYSSSPGNYRGFCSACGTPLLSRFDQTPDVYALPLGALDDDPGVKAACHVYVAHKAPWHDITDDLPRHPEGRPG | not soluble |
| MGSDKIHHHHHHMVTQMLEGKKVAILVETEFIPEEIAAYRQHFEELGATVHFMSRLWGNETVQFVSDVDEIGKSLQYLDVNIDFQSVDVNEYAAVIMAANYTSVRLRYFQPPPGQQISPEQTRTAPAIQFFAQAMANHKIIKGLLCHGLWLLTPMPELLRGRKVICHEVVLADIANAGAVYVPPPVNSQPNDPGNIVVDRDLVTGRAGHDVYAFIDAIAHQIASQEQRCLETQRR | not soluble |
